Assay [1] addresses T1, hASIC1a-mCherry fusion on a stable cell line (human, UniProt P78348 1-528).
T1 sequence (looked up): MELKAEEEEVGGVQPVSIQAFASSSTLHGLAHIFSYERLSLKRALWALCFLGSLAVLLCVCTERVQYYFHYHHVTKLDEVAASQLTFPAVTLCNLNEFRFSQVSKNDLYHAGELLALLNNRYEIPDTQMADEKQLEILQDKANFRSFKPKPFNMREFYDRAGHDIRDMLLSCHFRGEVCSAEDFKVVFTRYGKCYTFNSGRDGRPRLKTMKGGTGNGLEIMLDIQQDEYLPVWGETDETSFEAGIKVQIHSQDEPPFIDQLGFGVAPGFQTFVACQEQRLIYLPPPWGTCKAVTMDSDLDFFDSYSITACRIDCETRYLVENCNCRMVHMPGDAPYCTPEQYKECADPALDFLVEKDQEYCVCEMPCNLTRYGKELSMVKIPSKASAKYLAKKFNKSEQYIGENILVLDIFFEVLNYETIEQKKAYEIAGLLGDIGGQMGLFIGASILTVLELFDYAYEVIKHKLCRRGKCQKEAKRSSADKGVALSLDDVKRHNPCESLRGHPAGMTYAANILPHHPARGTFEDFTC
Kind of assay: cell-based or functional assay.

Assay [2] addresses T2, rat ASIC1a-eYFP (rASIC1a-eYFP) on transiently transfected CHO-K1 cells (rat, UniProt P55926 1-526).
T2 construct: whole, on cells; not shown: eYFP fusion partner
T2 sequence (looked up): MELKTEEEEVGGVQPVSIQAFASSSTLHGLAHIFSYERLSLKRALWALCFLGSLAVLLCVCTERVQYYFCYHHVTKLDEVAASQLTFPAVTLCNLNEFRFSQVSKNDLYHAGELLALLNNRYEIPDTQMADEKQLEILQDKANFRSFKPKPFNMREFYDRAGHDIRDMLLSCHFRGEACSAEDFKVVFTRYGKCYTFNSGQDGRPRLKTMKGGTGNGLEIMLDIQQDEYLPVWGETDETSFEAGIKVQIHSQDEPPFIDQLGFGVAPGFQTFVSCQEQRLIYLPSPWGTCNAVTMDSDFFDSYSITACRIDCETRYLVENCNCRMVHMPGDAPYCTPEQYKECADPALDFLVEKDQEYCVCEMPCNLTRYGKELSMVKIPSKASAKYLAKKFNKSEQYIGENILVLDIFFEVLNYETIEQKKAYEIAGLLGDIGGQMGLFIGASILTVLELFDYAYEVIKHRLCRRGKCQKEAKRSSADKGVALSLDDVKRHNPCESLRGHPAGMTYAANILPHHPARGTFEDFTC
Briefly: FACS on transiently transfected CHO-K1 cells. On the procedure:
(§1) To investigate the species selectivity of ASC06-IgG1 affinity-matured antibodies, plasmids encoding fusion proteins of eYFP with […] homologs of ASIC1a were constructed. These plasmids included those encoding human ASIC1a (hASIC1a-eYFP), mouse ASIC1a (mASIC1a-eYFP), and rat ASIC1a (rASIC1a-eYFP). CHO-K1 cells were transiently transfected with the ASIC1a-eYFP plasmids, and a fluorescence activated cell sorting (FACS)-based binding assay was carried out to determine binding to the homologs or isoforms of ASIC1a expressed on the cell surface. An isotype control was used as a negative control for binding (NC). ASC06-IgG1 was used as a positive control. Summarily, the CHO-K1 cells expressing the ASIC1a-eYFP (green) homologs were stained with the indicated antibody (red) and subjected to FACS.
(§2) To examine the ASIC isotype selectivity of ASC06-IgG1 affinity-matured antibodies, plasmids encoding fusion proteins of eYFP with isoforms of […] were constructed. These plasmids included those encoding human ASIC1b (hASIC1b-eYFP), human ASIC2a (hASIC2a-eYFP), and human ASIC3a (hASIC3a-eYFP). CHO-K1 cells were transiently transfected with these plasmids and used in a FACS-based binding assay disclosed herein. Binding of ASC06-IgG1 to CHO-K1 cells expressing human ASIC1a-eYFP (hASIC1a-eYFP) was used as a positive control (data not shown and FIG. 2), and an isotype control was used as a negative control for binding (NC).

Assay [3] deals with T3, mouse ASIC1a-eYFP (mASIC1a-eYFP) on transiently transfected CHO-K1 cells (mouse, UniProt Q6NXK8 1-526).
T3 construct: whole, on cells; not shown: eYFP fusion partner
T3 sequence (looked up): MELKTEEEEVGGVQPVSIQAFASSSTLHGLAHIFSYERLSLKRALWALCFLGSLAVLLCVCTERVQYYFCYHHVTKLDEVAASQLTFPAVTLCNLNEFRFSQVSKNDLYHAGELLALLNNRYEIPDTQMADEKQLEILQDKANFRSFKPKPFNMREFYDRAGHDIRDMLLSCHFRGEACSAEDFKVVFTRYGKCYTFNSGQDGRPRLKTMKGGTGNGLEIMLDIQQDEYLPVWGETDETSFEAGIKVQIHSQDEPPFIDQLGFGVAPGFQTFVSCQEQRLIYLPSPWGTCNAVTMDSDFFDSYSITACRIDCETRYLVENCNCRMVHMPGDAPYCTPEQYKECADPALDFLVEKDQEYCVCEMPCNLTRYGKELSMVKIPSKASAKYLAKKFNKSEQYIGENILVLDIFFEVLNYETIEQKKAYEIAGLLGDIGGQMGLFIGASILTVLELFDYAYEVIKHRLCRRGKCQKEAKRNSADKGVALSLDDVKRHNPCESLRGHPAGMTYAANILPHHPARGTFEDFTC
Briefly: FACS on transiently transfected CHO-K1 cells. The method, then:
as §1, §2

B1: ASC06-02-IgG1 (antibody, V domains shown)
VH: QVQLQQSGGGLVQPGGSLRLSCAASGFTFSSYAMSWVRQAPGKGLEWVSAISGSGGSTYYADSVKGRFTISRDNSKNTLYLQMNSLRAEDTAVYYCAKDSFFGRAKGSWGQGTLVTVSS
VL: QSALTQPASVSGSPGQSITISCTGTSSDVGAYNYVSWYQQQPGKAPKLMIYGVSNRPSGVSNRFSGSKSGNAASLTISGLQAEDEADYYCSSYTSSSTYVFGTGTKLTVLG
notes: Full length IgG1
For the molecule B1, the “IC50 for the inhibition of acid induced ASIC1a-mediated calcium influx, FLIPR-based assay” value in assay [1] is 1.97 nM. The binding result in assay [2] and in assay [3] was “binds” each time.

B2: ASC06-IgG1 (antibody, V domains shown)
VH: QVQLQQSGGGLVQPGGSLRLSCAASGFTFSSYAMSWVRQAPGKGLEWVSAISGSGGSTYYADSVKGRFTISRDNSKNTLYLQMNSLRAEDTAVYYCAKDSFYGYSKGDWGQGTLVTVSS
VL: QSALTQPASVSGSPGQSITISCTGTSSDVGAYNYVSWYQQQPGKAPKLMIYGVSNRPSGVSNRFSGSKSGNAASLTISGLQAEDEADYYCSSYTSSSTYVFGTGTKLTVLG
notes: Tested as full length IgG1; also called WT antibody ASC06-IgG1; parental ASC06-IgG1 antibody
As for B2, the “IC50 for the inhibition of acid induced ASIC1a-mediated calcium influx, FLIPR-based assay” value in assay [1] worked out at 2.11 nM. Besides, the binding result in assay [2] and in assay [3] was “binds” each time.

(Values after patent US20230174642A1, “AFFINITY-MATURATED ANTI-ASIC1a ANTIBODIES” (SHANGHAITECH UNIVERSITY, priority 2019, published 2023).)
